18 sequences from the DeepSol protein solubility set can be followed below.

The nature of this series: soluble on expression in E. coli; label from the status in PepcDB or PDB records.
As for “MFGKGENLAATDYQMVRHPDIHQAQCLYQTFRDKAVCLTGGDFTGRVIVCQHHGCGIVIQGAFNHFPGMDFRAVDGAGEEGFTGNQLILVIQIQHPELFTLQSRHVQNQPFPCRTGGGEGHAGFMKMAVQGFQGPQNETALAGRHFSGQKGNLLHCSCPLSVNNAHNGAAFRMLQGVIPQTVIMNRHGITLRTAGVMTVRHQTGGNAGGFRAHFSAVTVHDVKQHPCFVIIVIRFGCHKCATVVQGVQIPDTTAVVFIQTVHPAEDPGLQGHPLWNEAKMLRPEADALFIRDYGGNQLLQASLRCTGRRGGVLRQCFHV”, the “soluble on expression in E. coli” value is listed as “not soluble”. Then “MFGNLGQAKKYLGQAAKMLIGIPDYDNYVEHMKTNHPDKPYMSYEEFFRERQNARYGGDGKGGMRCC”, with “soluble”; and “MFHLRTCAAKLRPLTASQTVKTFSQNRPAAARTFQQIRCYSAPVAAEPFLSGTSSNYVEEMYCAWLENPKSVHKSWDIFFRNTNAGAPPGTAYQSPLPLSRGSLAAVAHAQSLVEAQPNVDKLVEDHLAVQSLIRAYQIRGHHVAQLDPLGILDADLDSSVPADIISSTDKLGFYGLDESDLDKVFHLPTTTFIGGQESALPLREIIRRLEMAYCQHIGVEFMFINDLEQCQWIRQKFETPGIMQFTNEEKRTLLARLVRSTRFEEFLQRKWSSEKRFGLEGCEVLIPALKTIIDKSSENGVDYVIMGMPHRGRLNVLANVIRKELEQIFCQFDSKLEAADEGSGDVKYHLGMYHRRINRVTDRNITLSLVANPSHLEAADPVVMGKTKAEQFYCGDTEGKKVMSILLHGDAAFAGQGIVYETFHLSDLPSYTTHGTVHVVVNNQIGFTTDPRMARSSPYPTDVARVVNAPIFHVNSDDPEAVMYVCKVAAEWRSTFHKDVVVDLVCYRRNGHNEMDEPMFTQPLMYKQIRKQKPVLQKYAELLVSQGVVNQPEYEEEISKYDKICEEAFARSKDEKILHIKHWLDSPWPGFFTLDGQPRSMSCPSTGLTEDILTHIGNVASSVPVENFTIHGGLSRILKTRGEMVKNRTVDWALAEYMAFGSLLKEGIHIRLSGQDVERGTFSHRHHVLHDQNVDKRTCIPMNHLWPNQAPYTVCNSSLSEYGVLGFEAGLRMASPNALVLWEAQFGDFHNTAQCIIDQFICPGQAKWVRQNGIVLLLPHGMEGMGPEHSSARPERFLQMCNDDPDVLPDLKEANFDINQLYDCNWVVVNCSTPGNFFHVLRRQILLPFRKPLIIFTPKSLLRHPEARSSFDEMLPGTHFQRVIPEDGPAAQNPENVKRLLFCTGKVYYDLTRERKARDMVGQVAITRIEQLSPFPFDLLLKEVQKYPNAELAWCQEEHKNQGYYDYVKPRLRTTISRAKPVWYAGRNPAAAPATGNKKTH”, with “soluble”. In the case of “MFIVKAFRDIIINIKFLQEGINMSDNKTAGQKLWENLSYNCPNVWNKIGNDEIKNTFAFCEEYKSFLDKSKTEREFVRETKKLAESKGFVSIDDVIDSGKPLKPGMKVYRVFKNKIVALAVIGSQPPEKGFNLVGAHIDSPRIDLKPNPIYEANEMVFLKTHYYGGIKKYQWVTIPLSMHGVIIRKDGSSVEIVIGEDENDTVFTITDLLPHLAAEQMQKKMSEGITGENLNILFGSIPYNDEKVKEKVKLNILKLLNEKYNITEEDLLSAELELVPSFKAKDVGLDKSMVGAYGQDDRVCAYTALRAVLDLDNVDKTAVCVLTDKEEIGSMGNTGAQSSFLENFIADICALSSEKYTDIILRRCLSNSKMLSADVNAAIDPTYEGVYDKLNSSFIGKGIVLLKYTGARGKSGASDAHAEFMGEVRKLFNERKIFWQTAELGKVDQGGGGTIAQFVANMGMDVIDCGVAVLSMHSPFEVTSKVDIYMAYKAYREFLKYIK” it was “soluble”. In the case of “MFKILLALCIVGCSFAAPIHGDVDDELLGLAWEAAATSVNNGNRGKFWVPIEIQSSDKNGAVTNLVVVFQESWCSVEEGNDLEDVCESMCPVYYGGAKATYRVTATESNGGSDFESVRIE” it was “not soluble”; in that of “MFKKALFILSLCPSFALAQSYVVYDFTHNRVLESHASDSIQPIASVTKLMTANVFLENNKNPNCRIAITKEDTDRIKGTGTKLPKNIPISCNELLKAMLVHSDNYAAHALSRAAGISRRQFIKKMNEKAHQLGMYSTRFHDSSGLSSYNISSPMDLVKLAKYSLNKSDIKRLSNLSATYIQAGKQKLYIKNTNKLVRDEIFDAAVNKTGYIQESGYNLVFINKHRCKNATIGVISLNNTSSAYRSSFTKSKLEKFGCTALNGRTIRDVAGEAQYEDGYDEVGFNTLIQKLSK”, “not soluble”. As for “MFKRTKLILIATILLSGCSTTNNESNNETKSVPEEMEASKYVGQGFQPPAEKDAVEFAKKHKDKIAKRGEQFFMDNFGLKVKATNVVGSGDGVEVFVHCDDHDIVFNASIPFDKSIIDSDSSLRSEDKGDDMSTLVGTVLSGFEYRAQKEKYDNLYKFFKENEKKYQYTGFTKEAINKTQNSGYENEYFYIVANIPTLQEYRKYYEPLIKKNNLNFKKGMKQARKGVGYKAAIEVHTTLFSRSSNFSKDKKLDDVIDLSESTKKLHLNFENTKIFLQLAKSTISTNRVNYSDNESIRIEVELEHHHHHH”, the “soluble on expression in E. coli” value is recorded as “soluble”.

Take “MFKRTKLILIATLLLSGCSTTNNESNNETKSVPEEMEASKYVGQGFQPPAEKDAIEFAKKHRKEFEKVGEQFFKDNFGLKVKATNVVGKDDGIEVYVHCDDHGIVFNASLPLYKDAIHQKGSMRSNDNGDDMSMMVGTVLSGFEYRAQKEKYDNLYKFFKENEKKYQYTGFTKEAINKTQNVGYKNEYFYITYSSRSLKEYRKYYEPLIQKNDKEFKEGMERARKEVNYAADTDAVATLFSTKKNFTNDNTEDDVIELSDKLYNLKNKPDKSTITIQIGKPTINTKKAFYDDNRPIEYGVHSKGELEHHHHHH”: the “soluble on expression in E. coli” value is “not soluble”. Then “MFKSLSQLFRPRVEALGLEIGASALKLVEVSGNPPALKALASRPTPPGLLMEGMVAEPAALAQEIKELLLEARTRKRYVVTALSNLAVILRPIQVPKMPLKEMEEAVRWEAERYIPFPIDEVVLDFAPLTPLSEVQEGEQVQVMVAAARQEAVAGVLEALRGAGLVPVVLDVKPFAGLYPLEARLAEEPDRVFLALDIGAESTSLVLLRGDKPLAVRVLTLSGKDFTEAIARSFNLDLLAAEEVKRTYGMATLPTEDEELLLDFDAERERYSPGRIYDAIRPVLVELTQELRRSLEFFRIQLEEASPEVGYLLGGGSKLRGLASLLTDTLGVNFEPVNPWEAVAVDPKRFESEQLQEIGPEFAVALGLALRGVEPLD”, with “soluble”. Consider “MFLFSELCRRLSPDAVRIVSDHRIVHLLTDSRTLSEPATTLFFALRTTSGDGHLYIRDLYDRGVRSFVISDPSKDLMEKMPQANWMRVAHPLDALQRIAALRRSMFDIPVIGITGSNGKTIVKEFLYQLLRKDYRIVRSPRSYNSQIGVPLSVWQMAEEHTLGIFEAGISQMGEMERLE”, for which the “soluble on expression in E. coli” value is “not soluble”. In the case of “MFNLRPAATLVALAAALSSLPALAEEARYNQISLRAEVNQEVQRDLMLVTLYTEAQDSDPARLAAQITETLNKALGQARQVKDVKIRQGSRNSYPVYDDKGQKITGWRERAELRLESADFAVLSKLTGELLTDLKMGGMDFSISPSTRKTSEDALLKDAVTAFKARAQLVTEALGGKGYKLVNLNLNTSGYPQPYLRAPVMMMAKSSRDESAPTPDVEAGTSQVSVAADGVIEVAIPLEHHHHHH” it was “soluble”. Then “MFPFGHKGQKIKGTMVVMQKNVLDINSITSVDGIVGTGLDFLGSALDTVTFLASSISIQLISATKADGGKGKVGKATNLRGKITLPTIGAKEEAYDAQFDWDSDFGIPGAFYIKNYMQNEFYLKSLILEDIPNHGTIHFICNSWVYNSKHYKTDRIFFANNTYLPSETPAPLVKYREEELKNVRGDGTGERKEWDRIYDYDVYNDLGDPDKGEKYARPVLGGSALPYPRRGRTGRGKTRKDPNSEKPGDFVYLPRDEAFGHLKSSDFLAYGIKSVAQDVLPVLTDAFDGNLLSLDFDNFAEVRKLYEGGVTLPTNFLSNITPIPIIKELFRTDGEQFLKYPPPKVMQVDKSAWMTDEEFARETIAGLNPNVIKIIEEFPLSSKLDTQAYGDHTCIITKEHLEPNLGGLTVEQAIQNKKLFILDHHDYLIPYLRKINANTTKTYATRTIFFLKNDGTLTPLAIELSKPHPQGEEYGPVSEVYVPSSEGVEAYIWLLAKAYVVVNDACYHQIISHWLNTHAVVEPFVIATNRHLSVVHPIYKLLFPHYRDTMNINSLARKSLVNADGIIEKTFLWGRYSLEMSAVIYKDWVFTDQALPNDLVKRGVAVKDPSAPHGVRLLIEDYPYASDGLEIWDAIKSWVEEYVSFYYKSDEELQKDPELQAWWKELVEVGHGDLKDKPWWQKMQTREELVEASATLIWIASALHAAVNFGQYPYGGLILNRPTISRRFMPEKGSPEYDALAKNPEKEFLKTITGKKETLIDLTIIEILSRHASDEFYLGQRDGGDYWTSDAGPLEAFKRFGKNLEEIEKKLIEKNNDETLRNRYGPAKMPYTLLYPSSEEGLTFRGIPNSISI”, with “soluble”; and “MFQMRLNLVIELRDAPGQLVSVLEPLGSTGVNIVTVIHERDREYGPVVPVQLTVEGDRETLDAAIGRLQEQGVNIIEMDGAPLREKFTTILIGDIAEGDLQETVEAVNSVQGASVLDLSLRMSEGRSAARITFEAEHGSRDEVLRRINEAAMERNLLLVSEV”, with “not soluble”.

For “MFREAELRNGLRVIAEVVPGARSVALGYFVKTGARDETKEESGVSHFLEHMVFKGPEDMDALAVNRAFDRMGAQYNAFTSEEATVYYGAVLPEFAYDLLGLFAKLLRPALREEDFQTEKLVILEEIARYQDRPGFMAYEWARARFFQGHPLGNSVLGTRESITALTREGMAAYHRRRYLPKNMVLAATGRVDFDRLLAEAERLTEAWPEGEAERAYPPLTPAFGVEERPYEKARALYLVALFPGVAYQEEARFPGQVLAHLLGEEGSGRLHFALVDKGLAEVASFGLEEADRAGTFHAYVQADPARKGEVLAVLQEELDRLGREGVGEEEVERAKTPLATGLVFAGETPMQRLFHLGMEYLYTGRYLSLEEVKARVQRVTSREVNALLERGFLEKGLYYLVLPHGA”, the “soluble on expression in E. coli” value is on record as “soluble”. “MFRLSALYRYPIKSSAAESLERVALDALGVVGDRRWMAVDTETGRFFTQRLLPQLGRIQARWAAPEVLRLNAPGMSELSLEVPAADANLRGVTVWRDTLQAPDAGDAAADWLTRFLGRP”: the “soluble on expression in E. coli” value was “not soluble”. On to “MFRMPIVTMERVDSFSAAHRLHSEKLSDAENKETFGKCNNSNGHGHNYVWKVKLRGEVDPTSGMVYDLAKLKKEMSLVLDTVDHRNLDKDVEFFKTTVSTSENVAIYMFEKLKSVMSNPSVLYKVTIEETPKNIFTYKGS”, for which the “soluble on expression in E. coli” value is on record as “soluble”. In the case of “MFSEELEKIDWEETTKTIYSKTESDVLRALGKEHCDVDDFMALISPAAAKYLEPMAQLSKKYTEERFGKTISMFIPLYITNSCTNSCVYCGFHISNPMARTILTPEQIEDEYKAIKKLGPFENLLLVTGENPAKAGVPYLAKALDIAKKYFSNLKIEVMPLKAEEYAELKEHGLNGVICFQETYNKARYNIYHPRGMKSKFEWRVNGFDRMGQAGVHSIGMGVLIGLEEWRTDVTMMAYHLRYLQKKYWKTKYSVNFPRMRPAENGGFQPNVIMNDRELAQLTFAMRIFDHDVDISYSTREPAQIRDNMAGLGVTTMSAESKTEPGGYYTYPQALEQFHVSDERTAVEVEHALKSLGREPVWKDWDVSFDKFTPIR” it was “not soluble”. For the sequence “MFSEELIKENENIWRRFLPHKFLIEMAENTIKKENFEKWLVNDYYFVKNALRFMALLMAKAPDDLLPFFAESIYYISKELEMFEKKAQELGISLNGEIDWRAKSYVNYLLSVASLGSFLEGFTALYCEEKAYYEAWKWVRENLKERSPYQEFINHWSSQEFGEYVKRIEKILNSLAEKHGEFEKERAREVFKEVSKFELIFWDIAYGGEGNVLEHHHHHH”, the “soluble on expression in E. coli” value is on record as “soluble”.
